Reference: PMC6929975, “A supramolecular protein chaperone for vaccine delivery” (Theranostics, 2020)

Test system: bone marrow-derived dendritic cells (BMDCs)
Test: Antigen uptake by BMDCs (confocal microscopy; OVA-Rhod)
Format: cell-based
Conditions: 1 h, 37 °C, OVA-Rhod 2.5 µg mL^-1 (soluble) or Comp./OVA = 10:1 w/w
Protocol: Figure 5 Vaccine promoting antigen uptake by BMDCs. […] Magnification: 63 ×. (B) The percentage of OVA-Rhod-positive cells is shown. (C) Total fluorescence intensity of OVA-Rhod was measured; total fluorescence intensity (FI) = % of positive cells × mean fluorescence intensity. The bars shown represent the mean ± SE, and differences among groups were determined using one-way ANOVA. The asterisks indicate the significance of differences between the Vac-1 group and the indicated group. *: p < 0.05, **: p < 0.01.

B1: RBITC-OVA: OVA labelled with Rhodamine b isothiocyanate, soluble (protein, UniProt P01012 2-386, looked up)
Ovalbumin: GSIGAASMEFCFDVFKELKVHHANENIFYCPIAIMSALAMVYLGAKDSTRTQINKVVRFDKLPGFGDSIEAQCGTSVNVHSSLRDILNQITKPNDVYSFSLASRLYAEERYPILPEYLQCVKELYRGGLEPINFQTAADQARELINSWVESQTNGIIRNVLQPSSVDSQTAMVLVNAIVFKGLWEKAFKDEDTQAMPFRVTEQESKPVQMMYQIGLFRVASMASEKMKILELPFASGTMSMLVLLPDEVSGLEQLESIINFEKLTEWTSSNVMEERKIKVYLPRMKMEEKYNLTSVLMAMGITDVFSSSANLSGISSAESLKISQAVHAAHAEINEAGREVVGSAEAGVDAASVSEEFRADHPFLFCIKHIATNAVLFFGRCVSP
modifications: rhodamine B isothiocyanate label
notes: OVA labelled with Rhodamine b isothiocyanate, soluble
uptake of RBITC-OVA by DCs: poor uptake
